Tested on: parathyroid hormone
Experiment: In vivo inhibition of PTH-stimulated urinary cyclic AMP excretion in thyroparathyroidectomized vitamin D deficient rats
Conditions: same experiment as FIG. 1
Protocol: The compound [Tyr-34]bPTH(7-34)amide was administered in vivo as an inhibitor of PTH stimulated biological activities. The effectivenss of the treatment was measured by measuring the urinary phosphate and cyclic AMP, standard procedures well known in endocrinology as valid measure of PTH activity. The dosage of PTH analogues used varied from more than 3.0 μg/Kg/hr to less than 15 mg/Kg/hr, optimally between 0.3 mg/Kg/hr and 1.5 mg/Kg/hr. Single bolus dosages were occassionally utilized as indicated containing the equivalent of many hours of the infusion procedure.
Male weanling Holtzman rats were maintained on a purified vitamin D deficient diet containing 0.44% calcium and 0.30% phosphorous for 7 weeks. At this time, the rats weighed 130-170 g. Thyroparathyroidectomy of the vitamin D deficient rats was preformed under anesthesia with ketamin hydrochloride injected intratraperitoneally. The femoral vein was cannulated with a heparin-treated polyethylene tube, and the blood was collected via the catheter for determination of blood chemistries. When needed both femoral veins were cannulated. A polyethylene catheter was also inserted into the urinary bladder via the ventral approach. […]
FIG. 2 is an experiment identical to that shown in FIG. 1, however, urinary cyclic AMP is now measured instead of urinary phosphate. […]

B1: bovine parathyroid hormone (protein, UniProt P01268 32-115, looked up)
Parathyroid hormone: AVSEIQFMHNLGKHLSSMERVEWLRKKLQDVHNFVALGASIAYRDGSSQRPRKKEDNVLVESHQKSLGEADKADVDVLIKAKPQ
modifications: Parathyroid hormone
notes: native 84-amino acid bovine parathyroid hormone, infused as the agonist
  effect on urine cyclic AMP production, substance administered alone (FIG. 2): marked effect

From patent US4423037A, “Inhibitors of peptide hormone action” (The General Hospital Corporation, priority 1982, dated 1983)
